How the values were obtained:
[1] = biological target: full length human extracellular superoxide dismutase (residues 1-240), (His)6-FLAG-PreScission site fusion (human) (UniProt P08294); experiment: SEC
[2] = biological target: the molecule itself; experiment: SEC

“full length human extracellular superoxide dismutase (residues 1-240), (His)6-FLAG-PreScission site fusion (from UniProt P08294 19-240) (enzyme)” was tested, and the stoichiometry N [1] was 8.

B1: truncated/mature human extracellular superoxide dismutase (residues 19-240), (His)6-FLAG-PreScission site fusion (enzyme, UniProt P08294 19-240, looked up)
chain: WTGEDSAEPNSDSAEWIRDMYAKVTEIWQEVMQRRDDDGALHAACQVQPSATLDAAQPRVTGVVLFRQLAPRAKLDAFFALEGFPTEPNSSSRAIHVHQFGDLSQGCESTGPHYNPLAVPHPQHPGDFGNFAVRDGSLWRYRAGLAASLAGPHSIVGRAVVVHAGEDDLGRGGNQASVENGNAGRRLACCVVGVCGPGLWERQAREHSERKKRRRESECKAA
modifications: N-glycosylated at Asn107
In the case of B1, the “stoichiometry N” value [2] is reported as 8.

Reference: paper PMC4794606 (Molecules and Cells, 2016)
